Measured values taken from patent US20220056118A1 (UNIVERSITY OF BRITISH COLUMBIA, published 2022).
Positions count from the first letter of the chain named.

B1: rabbit monoclonal antibody 14 (14H1-14K2) (antibody, V domains shown)
VH: QEQLEESGGDLVKPEGSLTLTCTASGFSFSSNYVMCWVRQAPGKGLEWVACIWFAGIVDTTYYATWAKGRFTISKTSSTTVTLQMTSLTAADTATYFCARNPVGSVNLWGQGTLVTVS
VL: VMTQTPSSKSVPVGGSVTINCQASESVYSNNRLSWYQQKPGQPPKLLIYYASTLESGVPSRFKGSGFGTHFTLTISGAQCDDAATYYCAGWRGARTDGVDFGGGTEVVVK
notes: Recombinant; also called Rabbit 14; clone 14
B2: rabbit monoclonal antibody 17 (17H3-17K3) (antibody, V domains shown)
VH: QEQLVESGGGLVQPGASLTLTCTASGFSFSSSYVMCWVRQAPGKGLEWITCSDTGINTWYASWAKGRFTISKTSSTTVTLQMTSLTAADTATYFCARRYTGDTYLGNFNLWGQGTLVTVS
VL: AQVLTQTPASVSAAVGGTVTINCQASQSVYKNNYLSWYQQKPGQPPKLLIYKASTLASGVPSRFKGSGSGTQFTLTISDVQCDDAATYYCAGGWRSLNAFGGGTEVVVK
notes: Recombinant; also called Rabbit 17; clone 17
B3: mouse monoclonal antibody 2F7 (antibody, V domains shown)
VH: DVKLVESGGGLVKLGGSLKLSCAASGFTFSSYYMSWVRQTPEKRLELVATINSNGGSTYYPDTVKGRITISRDNAKNTLQLQMSSLRSEDTALYYCVRQNYEGAYWGQGTLVTVSA
VL: DVLMTQTPLSLPVTLGDQASISCRSSQSIVHSNGNTYLEWYLQKPGQSPKLLIYKVSNRFSGVPDRFSGSGSGTDFTLKISRVEAEDLGVYYCFQSSHVPWTFGGGTKLEIK
notes: Mouse hybridoma antibody; also called Mouse 2F7
B4: mouse monoclonal antibody 3E8 (antibody, V domains shown)
VH: B3 VH
VL: B3 VL
notes: Mouse hybridoma antibody; also called Mouse 3E8
B5: rabbit monoclonal antibody 1 (1H3-1K3) (antibody, V domains shown)
VH: QSVEESGGRLVTPGTPLTLTCTVSGFSLSRYYMTWVRQAPGKGLEYIGVIIPGGTTYYASWAKGRFTISKTSTTVDLRITSPTTEDTATYFCAGGPTGNSHFTLWGQGTLVTVS
VL: VMTQTPSSKSVPVGGTVTINCQASESVYNNNHLSWYQQKSGQPPKLLIYEASKLESGVPPRFKGSGSGTQFTLTISDVVCDDAATYYCSGYKRVTTDGIAFGGGTEVVVK
notes: Recombinant; also called Rabbit 1; clone 1
B6: rabbit monoclonal antibody 38 (38H1-38K1) (antibody, V domains shown)
VH: B5 VH with L28F, R30A, Y46F, I50T, G53I, T55R, D76H, R78K, T89A
VL: B5 VL with G15D, H32Q, S40P, E50Q, P60S, S89A, R93S, V94P
notes: Recombinant; also called clone 38

biological target: T1, DAGWGNLc (SEQ ID NO: 9) peptide conjugated to bovine serum albumin (human; bovine, UniProt P02769 25-607, N-terminus acetylated; C-terminal Cys conjugated to BSA); assay: SPR, peptide-BSA immobilized (about 50 RU), antibody injected, Langmuir 1:1 fit
T1 construct: TDP-43 residues 65-71 plus an added C-terminal cysteine; also called Peptide conjugated to bovine serum albumin (BSA)
Description: Surface plasmon resonance (SPR) analysis was used to measure the binding kinetics of monoclonal antibodies to the peptide epitope. Peptide conjugated to bovine serum albumin (BSA) was immobilized at a very low density (approximately 50 RUs) on flow cells of a sensor chip. Purified mouse or rabbit monoclonal antibodies diluted 4-fold from 31.25 nM to 0.24 nM were injected sequentially over the surfaces for approximately 5 min followed by dissociation in buffer and surface regeneration. Binding parameters were calculated using kinetic curve fitting and a Langmuir 1:1 interaction model.

T1 sequence (P02769 25-607 limits assumed): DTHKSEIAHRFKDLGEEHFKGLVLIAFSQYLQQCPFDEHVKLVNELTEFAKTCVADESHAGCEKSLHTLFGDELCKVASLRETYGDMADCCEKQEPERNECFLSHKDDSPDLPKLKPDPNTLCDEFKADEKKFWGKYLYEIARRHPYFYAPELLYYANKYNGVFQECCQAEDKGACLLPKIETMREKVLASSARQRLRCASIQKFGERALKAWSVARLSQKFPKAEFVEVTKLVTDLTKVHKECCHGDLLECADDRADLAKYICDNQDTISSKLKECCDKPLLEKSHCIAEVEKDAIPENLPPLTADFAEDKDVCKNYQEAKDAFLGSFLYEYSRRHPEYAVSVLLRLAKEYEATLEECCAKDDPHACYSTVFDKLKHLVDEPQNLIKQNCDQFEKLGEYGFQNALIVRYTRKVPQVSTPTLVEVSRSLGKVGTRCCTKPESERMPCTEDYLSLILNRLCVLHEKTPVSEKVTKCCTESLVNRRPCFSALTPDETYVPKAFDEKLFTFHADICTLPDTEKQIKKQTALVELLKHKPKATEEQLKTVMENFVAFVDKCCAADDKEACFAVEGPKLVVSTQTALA

| Kd [pM] | koff [s⁻¹] | kon [M⁻¹ s⁻¹] | Binder |
| --- | --- | --- | --- |
| 15.1 | 9.04e-06 | 599000 | B1 |
| 91.9 | 4.32e-05 | 470000 | B2 |
| 622 | 0.00176 | 2.83e+06 | B3 |
| 722 | 0.002 | 2.77e+06 | B4 |
| 62 | 2.5e-05 | 403000 | B5 |

biological target: T2, HA-tagged wild-type human TDP-43 with the original NLS sequence (WT-TDP43) (human, UniProt Q13148 1-414); assay: immunocytochemistry, transfected HEK293FT cells; column: Binding to nuclear WT TDP-43
T2 construct: whole, on cells; Overexpressed inside transfected HEK293FT cells; also called wildtype TDP-43-HA; WT nuclear TDP-43-HA; not shown: HA tag
T2 sequence (Q13148 whole entry): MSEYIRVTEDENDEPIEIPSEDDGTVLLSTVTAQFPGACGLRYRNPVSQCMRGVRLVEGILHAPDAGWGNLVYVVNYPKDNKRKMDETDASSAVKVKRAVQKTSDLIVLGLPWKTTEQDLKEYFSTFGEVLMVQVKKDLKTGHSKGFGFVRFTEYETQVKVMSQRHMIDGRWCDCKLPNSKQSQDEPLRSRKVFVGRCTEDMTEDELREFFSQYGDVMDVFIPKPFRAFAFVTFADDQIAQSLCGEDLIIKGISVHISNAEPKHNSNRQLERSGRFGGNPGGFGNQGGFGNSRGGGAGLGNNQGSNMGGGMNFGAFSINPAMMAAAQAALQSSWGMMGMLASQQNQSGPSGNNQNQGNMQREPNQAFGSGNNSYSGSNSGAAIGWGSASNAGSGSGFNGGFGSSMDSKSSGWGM

| binding result | Binder |
| --- | --- |
| no binding (tested: 10 ug/ml) | B1 |
| no binding (tested: 10 ug/ml) | B6 |

biological target: T3, endogenous TDP-43 of HEK293FT cells (human, UniProt Q13148 1-414); assay: immunocytochemistry, arsenite-stressed HEK293FT cells; column: Binding to stress granules
T3 construct: whole, on cells; Two states of the same protein are tested: nuclear in cells transfected with empty vector, and in the stress granules of cells stressed with sodium arsenite; the state is named in each row; also called endogenous, nuclear WT TDP-43; TDP-43 in physiologic stress granules
T3 sequence (Q13148 whole entry): as above

| binding result | Binder |
| --- | --- |
| no binding (tested: 10 ug/ml) | B1 |
| no binding (tested: 10 ug/ml) | B6 |
